Experimental data as given in patent publication US20130303441A1 (YEDA RESEARCH AND DEVELOPMENT, published 2013).
Square brackets hold non-standard residues; d marks the D form. Ends that are not written are not given here. pS = N[C@@H](COP(=O)(O)O)C(=O)O

Molecular target: wild-type (WT) GSK-3β (human, UniProt P49841 1-420, limits assumed)
Assay: cell-based or functional assay

Chain of wild-type (WT) GSK-3β (P49841 other isoform, or with tags, fused parts or gaps limits assumed): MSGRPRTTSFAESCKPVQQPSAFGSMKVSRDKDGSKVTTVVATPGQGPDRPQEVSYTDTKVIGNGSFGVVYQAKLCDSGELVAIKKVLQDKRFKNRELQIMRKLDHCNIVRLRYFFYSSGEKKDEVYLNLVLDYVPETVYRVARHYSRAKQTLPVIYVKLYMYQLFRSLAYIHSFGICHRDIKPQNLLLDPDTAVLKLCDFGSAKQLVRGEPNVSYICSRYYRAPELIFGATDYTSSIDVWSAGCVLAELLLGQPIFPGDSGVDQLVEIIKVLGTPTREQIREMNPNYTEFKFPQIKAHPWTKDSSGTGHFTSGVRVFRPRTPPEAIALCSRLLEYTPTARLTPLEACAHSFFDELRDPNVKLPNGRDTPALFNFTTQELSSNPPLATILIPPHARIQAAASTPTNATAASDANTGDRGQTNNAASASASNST

KEAPPAPPQ[pS]PF [L803F, Lys-Glu-Ala-Pro-Pro-Ala-Pro-Pro-Gln-phosphorylated Ser-Pro-Phe]
IC50, in vitro kinase assay: ~150 µM
in vitro kinase assays with GSK-3β in the presence of L803 or L803F (200 µM each); inhibition relative to L803: ~50 % relatively to L803
